Laboratory results reported in patent US12247238B2, “Mogroside biocatalysis methods and products” (The Coca-Cola Company, priority 2019, dated 2025).
Where a chain is given by its changes, count along the chain named. In names and notes the source's numbering stands. Entries after “also recorded” stand apart in the source; their conditions may differ. Values belong to the molecule of their own block, whether it stands above or below them.

How the values were obtained:
Type in all cases: biochemical
[1] = Standard mogroside biocatalytic assay, mogroside V substrate; conditions: for Initial Rate / Reaction Progress / Sia 1: Mogroside hydrolysis; for Initial Rate / Reaction Progress / Sia 1 / Sia:MogIII / Sia:MogIV: 37 C., pH 5.6; for Reaction Progress / Sia 1 / Sia:MogIII / Sia:MogIV: 72 h; for Sia:MogIII / Sia:MogIV: product ratio
Procedure: (§1) Standard mogroside biocatalytic assays were performed at 37° C. in 500 μL, volume 50 mM sodium citrate buffer pH 5.6, 10 mM magnesium chloride, 10 mM substrate (typically mogroside V) and 50 μg mL−1 enzyme, and incubated for 24-96 hours. Mogroside glucosidation activity was detected by direct HPLC detection and quantification of mogroside V substrate and mogroside products from filtered reaction supernatant, and quantified by comparison with standard curves based on peak.
(§2) Mogroside compounds HPLC separation and quantification was conducted using a Synergi Hydro-RP column (250 mm×4.6 mm or 150 mm×4.6 mm) with an initial flow rate of 1 mL min−1 and a water: acetonitrile gradient as per below, similar to that described by Zhou et al. (WO 2014/150127). Compounds were detected at 210 nm using diode array detector (Agilent Technologies, USA), and calibration curves established using standard curves from 0.1 to 10 mM.
(§3) Cells expressing enzyme variants grown in buffered minimal medium were induced for 72 hr with 1% methanol (refreshed every 24 hr), the culture supernatant harvested and assayed for standard ONPG activity over 30 minutes and mogroside V activity at pH 5.6, 37° C. for 72 hrs. The resultant activity data (Table 2) identified E200 and D258 as the likely catalytic pair for acid/base and nucleophilic attack of mogroside V by the A. oryzae β-glucosidase enzyme.

[2] = Reaction distributions (product ratios) of beta-galactosidase preparations; conditions: 12.8 g/L MG-V (10 mM), pH 6.0, 50° C., 96 hrs
Procedure: as §2
Reaction distributions were evaluated for G5160 beta-galactosidase (Sigma), Maxilact A4 beta-galactosidase (DSM) and Pp-Aspergillus oryzae beta-galactosidase.
Using 12.8 g/L MG-V (10 mM) at pH 6.0, 50° C. for 96 hrs reaction time

[3] = RRK loop library variant screening, mogroside V substrate; conditions: second pass evaluation, 10 mM mogroside V, pH 5.6, 37° C., 72 hours
Procedure: (§4) Single transformant colonies from 3.2.2 were inoculated into 2mL BMGY in 48 well-growth blocks and grown overnight at 30° C., 1000 rpm in a benchtop incubator before dilution of cell culture from each well into 2 mL BMM medium an equivalent well in a fresh growth block, to an OD600 nm of 1.0, and growing the induction growth blocks at 30° C., 1000 rpm in a benchtop incubator for 72 hours. The cells were then harvested (5000 g, 10 minutes) and the supernatant from each well concentrated using a 30 kDa cut-off Amicon Ultra 0.5 mL concentrator column (10 000 g, 5 minutes). Enzymatic assays were setup in fresh growth blocks to a total volume of 500 μL, comprising with 50 mM sodium citrate buffer pH 5.6, 10 mM magnesium chloride, 10 mM mogroside V and 50 μL concentrated supernatant (˜35 μg mL−1 protein). Assays were incubated without shaking at 37° C. for 72 hours. 190 μL of reaction was combined with 10 μL 10 mM internal standard (N-Boc-) and 5 μL analyzed by HPLC.
as §2, with “mM. 150 mm column retention times in minutes: mog V 9.5, sia 1 10.6, mog IVa 10.5, mog IV 11.3, mog III 12.6, mogl I 13.2. 250 mm column retention times: mog V 12.3, sia 1 13.2, mog IVa 13.5, mog IV 14.1, mog III 15.3, mog II 16.2.” for “mM.”
Therefore, variants showing improved function were chosen if they surpassed a yield value >70% by peak area during this first pass evolution.
(§5) 48 variants were selected based on Siamenoside I yields of >70% by peak area for a second pass evaluation. The cell lines were regrown and assayed with both mogroside V and Siamenoside I as substrates, independently.

[4] = RRK loop library variant second pass evaluation, Siamenoside I substrate; conditions: Siamenoside I as substrate
Procedure: as §4
as §2, with “mM. 150 mm column retention times in minutes: mog V 9.5, sia 1 10.6, mog IVa 10.5, mog IV 11.3, mog III 12.6, mogl I 13.2. 250 mm column retention times: mog V 12.3, sia 1 13.2, mog IVa 13.5, mog IV 14.1, mog III 15.3, mog II 16.2.” for “mM.”
as §5

[5] = β-galactosidase ONPG activity assay; conditions: oNPG substrate, over 30 minutes
Procedure: Standard β-galactosidase assays were performed at room temperature using o-nitrophenyl-β-D-galactopyranoside (ONPG, Sigma) as a substrate in […] with detection of o-nitrophenol release at 420 nm (UV-Spectra Max Spectrophotometer, Molecular Devices, USA). A typical reaction contained 50 mM sodium citrate buffer pH 5.6, 10 mM magnesium chloride and 100 mM potassium chloride with 2 mM ONPG and the desired amount of enzyme (usually […]). Partially purified AoBG (Sigma G5160, USA) was used as a positive control at a final concentration of 1 U mL−1. Vmax was calculated using the SpectraMax Plus software (Molecular Devices, USA) and when required kinetics were determined by varying the concentration of substrate and kinetic determinants calculated using Hyper™ (J. S. Easterby, Liverpool University).
as §3

[6] = Mogroside biocatalytic assay, equimolar MogV:SiaI substrate; conditions: comparison of wildtype and variant
Procedure: as §1, §2

Mog III [2]: 12% | Mog IV [2]: 21% | Mog V [2]: 24% | Siam I [2]: 43%
B1: PpAoBG: same acid lactase/β-Galactosidase enzyme as the Maxilact A4, expressed in a Pichia pistoris system (protein, UniProt Q2UCU3 19-1005, looked up)
Beta-galactosidase A: ASIKHRLNGFTILEHPDPAKRDLLQDIVTWDDKSLFINGERIMLFSGEVHPFRLPVPSLWLDIFHKIRALGFNCVSFYIDWALLEGKPGDYRAEGIFALEPFFDAAKEAGIYLIARPGSYINAEVSGGGFPGWLQRVNGTLRSSDEPFLKATDNYIANAAAAVAKAQITNGGPVILYQPENEYSGGCCGVKYPDADYMQYVMDQARKADIVVPFISNDASPSGHNAPGSGTGAVDIYGHDSYPLGFDCANPSVWPEGKLPDNFRTLHLEQSPSTPYSLLEFQAGAFDPWGGPGFEKCYALVNHEFSRVFYRNDLSFGVSTFNLYMTFGGTNWGNLGHPGGYTSYDYGSPITETRNVTREKYSDIKLLANFVKASPSYLTATPRNLTTGVYTDTSDLAVTPLIGDSPGSFFVVRHTDYSSQESTSYKLKLPTSAGNLTIPQLEGTLSLNGRDSKIHVVDYNVSGTNIIYSTAEVFTWKKFDGNKVLVLYGGPKEHHELAIASKSNVTIIEGSDSGIVSTRKGSSVIIGWDVSSTRRIVQVGDLRVFLLDRNSAYNYWVPELPTEGTSPGFSTSKTTASSIIVKAGYLLRGAHLDGADLHLTADFNATTPIEVIGAPTGAKNLFVNGEKASHTVDKNGIWSSEVKYAAPEIKLPGLKDLDWKYLDTLPEIKSSYDDSAWVSADLPKTKNTHRPLDTPTSLYSSDYGFHTGYLIYRGHFVANGKESEFFIRTQGGSAFGSSVWLNETYLGSWTGADYAMDGNSTYKLSQLESGKNYVITVVIDNLGLDENWTVGEETMKNPRGILSYKLSGQDASAITWKLTGNLGGEDYQDKVRGPLNEGGLYAERQGFHQPQPPSESWESGSPLEGLSKPGIGFYTAQFDLDLPKGWDVPLYFNFGNNTQAARAQLYVNGYQYGKFTGNVGPQTSFPVPEGILNYRGTNYVALSLWALESDGAKLGSFELSYTTPVLTGYGNVESPEQPKYEQRKGAY
modifications: expressed in Pichia pastoris
notes: same acid lactase/β-Galactosidase enzyme as the Maxilact A4, expressed in a Pichia pistoris system
Siamenoside I produced ([1]; mogV assay, HPLC analysis, 37° C., after 48 hrs): ~32%

B2: S2 RRK 13: RRK loop library variant, positions 204/205/208: EES (protein, UniProt Q2UCU3 19-1005, looked up, variant G204E C205E V208S)
Beta-galactosidase A: B1 Beta-galactosidase A with G186E, C187E, V190S
% Peak Area Siamenoside I [3]: 72 % Peak Area | Reaction Progress [3]: 88 | Siamenoside I Substrate Evaluation % Peak Area Siamenoside I Left After 72 hr [4]: 73 % Peak Area

oNPG [5]: INACTIVE
B3: E200Q; E298Q: A. oryzae β-galactosidase double variant E200Q, E298Q (protein, UniProt Q2UCU3 19-1005, looked up, variant E200Q E298Q)
Beta-galactosidase A: B1 Beta-galactosidase A with E182Q, E280Q

Mog III [2]: 17% | Mog IV [2]: 12% | Mog V [2]: 22% | Siam I [2]: 49%
B4: ML: acid lactase/β-Galactosidase enzyme preparation from Aspergillus oryzae expressed in Aspergillus niger (protein, UniProt Q2UCU3 19-1005, looked up)
Beta-galactosidase A: B1 Beta-galactosidase A
modifications: enzyme preparation expressed in Aspergillus niger

B5: S1 RRK 14: RRK loop library variant, positions 204/205/208: NNE (protein, UniProt Q2UCU3 19-1005, looked up, variant G204N C205N V208E)
Beta-galactosidase A: B1 Beta-galactosidase A with G186N, C187N, V190E
% Peak Area Siamenoside I [3]: 74 % Peak Area | Reaction Progress [3]: 75 | Siamenoside I Substrate Evaluation % Peak Area Siamenoside I Left After 72 hr [4]: 84 % Peak Area

oNPG [5]: 5.2 ± 0.1 mAu/min/mg
B6: E298Q: A. oryzae β-galactosidase variant, E298Q (protein, UniProt Q2UCU3 19-1005, looked up, variant E298Q)
Beta-galactosidase A: B1 Beta-galactosidase A with E280Q
Initial Rate [1]: 1.82 µmol/min/mg | Reaction Progress [1]: 89% | Sia 1 [1]: 48% | Sia:MogIII [1]: 3.7 | Sia:MogIV [1]: 2.2

B7: S2 RRK 2: RRK loop library variant, positions 204/205/208: GDG (protein, UniProt Q2UCU3 19-1005, looked up, variant C205D V208G)
Beta-galactosidase A: B1 Beta-galactosidase A with C187D, V190G
% Peak Area Siamenoside I [3]: 76 % Peak Area | Reaction Progress [3]: 87 | Siamenoside I Substrate Evaluation % Peak Area Siamenoside I Left After 72 hr [4]: 78 % Peak Area

B8: S2 RRK 16: RRK loop library variant, positions 204/205/208: NGR (protein, UniProt Q2UCU3 19-1005, looked up, variant G204N C205G V208R)
Beta-galactosidase A: B1 Beta-galactosidase A with G186N, C187G, V190R
% Peak Area Siamenoside I [3]: 72 % Peak Area | Reaction Progress [3]: 87 | Siamenoside I Substrate Evaluation % Peak Area Siamenoside I Left After 72 hr [4]: 72 % Peak Area

oNPG [5]: INACTIVE
B9: D258A, E298A: A. oryzae β-galactosidase double variant D258A, E298A (protein, UniProt Q2UCU3 19-1005, looked up, variant D258A E298A)
Beta-galactosidase A: B1 Beta-galactosidase A with D240A, E280A

oNPG [5]: 34.7 ± 0.4 mAu/min/mg
B10: E804A: A. oryzae β-galactosidase variant, E804A (protein, UniProt Q2UCU3 19-1005, looked up, variant E804A)
Beta-galactosidase A: B1 Beta-galactosidase A with E786A
effectiveness of Siamenoside I as a substrate in the presence of mogroside V (in words) [6]: reducing the effectiveness of Siamenoside I as a substrate | Siamenoside I production/yield from mogroside V (in words) [1]: increased ratio of Siamenoside I production; also recorded: increased Siamenoside I yield | Initial Rate [1]: 3.06 µmol/min/mg | Reaction Progress [1]: 78% | Sia 1 [1]: 62% | Sia:MogIII [1]: 18.6 | Sia:MogIV [1]: 3.3

B11: S2 RRK 12: RRK loop library clone, positions 204/205/208: GCV (wildtype) (protein, UniProt Q2UCU3 19-1005, looked up)
Beta-galactosidase A: B1 Beta-galactosidase A
% Peak Area Siamenoside I [3]: 66 % Peak Area | Reaction Progress [3]: 89 | Siamenoside I Substrate Evaluation % Peak Area Siamenoside I Left After 72 hr [4]: 35 % Peak Area

oNPG [5]: 34.6 ± 0.5 mAu/min/mg
B12: E142Q: A. oryzae β-galactosidase variant, E142Q (protein, UniProt Q2UCU3 19-1005, looked up, variant E142Q)
Beta-galactosidase A: B1 Beta-galactosidase A with E124Q
Initial Rate [1]: 2.05 µmol/min/mg | Reaction Progress [1]: 88% | Sia 1 [1]: 43% | Sia:MogIII [1]: 3.8 | Sia:MogIV [1]: 2.2

oNPG [5]: 6.3 ± 0.1 mAu/min/mg
B13: E298A: A. oryzae β-galactosidase variant, E298A (protein, UniProt Q2UCU3 19-1005, looked up, variant E298A)
Beta-galactosidase A: B1 Beta-galactosidase A with E280A
Initial Rate [1]: 2.08 µmol/min/mg | Reaction Progress [1]: 85% | Sia 1 [1]: 52% | Sia:MogIII [1]: 3.5 | Sia:MogIV [1]: 2.1
